In one assay the test system is BJAB. The experiment in a line: In vitro cell proliferation assay, ADC killing of BJAB cells. The assay is classed as cell-based, human.
For another assay, the system named is WSU-DLCL2. The experiment in a line: In vitro cell proliferation assay, ADC killing of WSU-DLCL2 cells. The assay is classed as cell-based, human.
The subject of another assay is Jurkat. The experiment in a line: In vitro cell proliferation assay, ADC killing of Jurkat cells. The format is cell-based.
The test system of the next assay is NCI-H441. The experiment in a line: EdU Prolif assay, NCI-H441. The assay is classed as cell-based. The settings on record: NCI-H441 cells.

Broadly, the IC50 is the midpoint of a concentration-inhibition curve. The low end stands for greater potency in that assay, the high end for weaker potency in that assay.

B1: ADC1-1: Anti-Napi2b 10H1.11.4B LC K149C antibody conjugated with the Example 1 linker-drug MC-Sq-Cit-PAB Dolastatin 10 (conjugate)
VH: EVQLVESGGGLVQPGGSLRLSCAASGFSFSDFAMSWVRQAPGKGLEWVATIGRVAFHTYYPDSMKGRFTISRDNSKNTLYLQMNSLRAEDTAVYYCARHRGFDVGHFDFWGQGTLVTVSS
VL: DIQMTQSPSSLSASVGDRVTITCRSSETLVHSSGNTYLEWYQQKPGKAPKLLIYRVSNRFSGVPSRFSGSGSGTDFTLTISSLQPEDFATYYCFQGSFNPLTFGQGTKVEIKR
With B1, in the assay on BJAB, the “BJAB IC50” value is over 20 µg/mL and the IC50 is over 133 nM. In addition, in the assay with WSU-DLCL2, half-maximal inhibition (IC50) required 44.2 nM and the “WSU-DLCL2 IC50” value was determined as 6.63 µg/mL. For the same molecule, in the assay with Jurkat, inhibition was half-maximal at 73.6 nM (IC50) and the “Jurkat IC50” value is 11.04 µg/mL. Further, in the assay on NCI-H441, the half-inhibitory concentration (IC50) worked out at 95.4 nM and the “NCI-H441 IC50” value is 14.31 µg/mL.

Source of the values: patent US11104673B2, “Quaternary amine compounds and antibody-drug conjugates thereof” (priority 2014, dated 2021).
